This note sets out measurements from patent publication US20260317448 (published 2026).

The target of one test is T1, 2-hsALPI peptide (human, intestinal alkaline phosphatase aa234-250).
T1 chain: PEYPADASQNGIRLDGK
As to the kind of experiment: ELISA. In general terms: In an ELISA, binding on a coated surface is turned into a signal by an enzyme label.

Test [1] concerns the target T2, placental alkaline phosphatase (human, UniProt P05187).
T2 chain: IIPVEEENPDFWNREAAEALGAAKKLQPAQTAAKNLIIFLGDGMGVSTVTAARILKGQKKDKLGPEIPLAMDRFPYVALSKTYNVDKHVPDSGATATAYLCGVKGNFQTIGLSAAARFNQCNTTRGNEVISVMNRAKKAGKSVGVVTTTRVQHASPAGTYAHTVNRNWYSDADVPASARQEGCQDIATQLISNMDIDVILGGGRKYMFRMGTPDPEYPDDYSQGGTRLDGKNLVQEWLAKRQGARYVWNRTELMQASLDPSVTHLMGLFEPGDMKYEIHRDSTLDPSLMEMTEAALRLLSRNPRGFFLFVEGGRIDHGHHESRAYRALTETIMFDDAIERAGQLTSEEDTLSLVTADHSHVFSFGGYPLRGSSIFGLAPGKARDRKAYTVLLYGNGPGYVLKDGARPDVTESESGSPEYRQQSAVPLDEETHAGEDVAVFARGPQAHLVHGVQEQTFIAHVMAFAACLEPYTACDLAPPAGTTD
As to the kind of experiment: other, western blot. Background: In western blotting, separated proteins are transferred to a membrane and probed.

In test [2] the target is T3, tissue-nonspecific alkaline phosphatase (human, UniProt P05186).
T3 chain: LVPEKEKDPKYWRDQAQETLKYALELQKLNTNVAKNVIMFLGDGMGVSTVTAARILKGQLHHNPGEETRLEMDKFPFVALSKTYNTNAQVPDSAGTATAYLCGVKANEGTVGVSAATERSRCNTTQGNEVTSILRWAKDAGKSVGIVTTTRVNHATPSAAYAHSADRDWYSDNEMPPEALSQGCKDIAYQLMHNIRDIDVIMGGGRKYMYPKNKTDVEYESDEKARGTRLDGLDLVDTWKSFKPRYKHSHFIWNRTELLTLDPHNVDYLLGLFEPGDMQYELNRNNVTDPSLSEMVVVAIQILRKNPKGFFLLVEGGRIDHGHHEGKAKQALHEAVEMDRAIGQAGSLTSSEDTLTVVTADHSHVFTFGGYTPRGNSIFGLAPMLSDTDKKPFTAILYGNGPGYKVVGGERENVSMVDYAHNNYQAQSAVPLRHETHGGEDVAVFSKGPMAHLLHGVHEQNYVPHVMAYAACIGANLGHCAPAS
The test is described as follows: other, western blot.

Test [3] deals with T4, germ cell alkaline phosphatase (human, UniProt P10696).
T4 chain: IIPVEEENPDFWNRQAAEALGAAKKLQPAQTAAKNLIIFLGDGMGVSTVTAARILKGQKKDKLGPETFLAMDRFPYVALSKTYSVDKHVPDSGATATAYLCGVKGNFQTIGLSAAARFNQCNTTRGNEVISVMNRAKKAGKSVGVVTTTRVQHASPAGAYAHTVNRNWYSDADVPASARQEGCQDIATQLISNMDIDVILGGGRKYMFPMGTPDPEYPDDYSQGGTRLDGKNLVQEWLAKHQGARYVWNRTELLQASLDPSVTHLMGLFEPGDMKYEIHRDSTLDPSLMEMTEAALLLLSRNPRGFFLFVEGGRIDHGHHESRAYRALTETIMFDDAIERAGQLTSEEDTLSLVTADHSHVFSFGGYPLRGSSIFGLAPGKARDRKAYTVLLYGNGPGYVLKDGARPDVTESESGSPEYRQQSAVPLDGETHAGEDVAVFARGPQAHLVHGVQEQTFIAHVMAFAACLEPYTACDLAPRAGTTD
As to the kind of experiment: other, western blot.

Another test concerns the target T5, 6-hsALPI peptide (human, intestinal alkaline phosphatase aa416-438).
T5 chain: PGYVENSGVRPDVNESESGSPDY
As to the kind of experiment: ELISA.

B1: CDI005E8 (antibody, V domains shown)
VH: CQSLEESGGGLVQPGASLTLTCTASGFSFTNNYWIYWVRQAPGKGLEWIGSVIISSSSAYYASWAKGRFTITKPSSTTVTLQVTSLTAADTATYFCVTGGILWGPGTLVTVSS
VL: MDTRAPTQLLGLLLLWLPGARCDVVMTQTPASVEAAVGGTVTIKCQASQSIGTALAWYQQKPGQPPKRLIYKASTLTSGVPSRFKGSGSGTDFTLTISDLECADAATYYCQCTVDDSSSGSSYGNAFGGGTEVVVRG
The Kd is the free concentration of one partner at which half of the binding sites on the other are occupied at equilibrium, for simple one-to-one binding. Low values mean a tighter complex, high ones a looser complex. Take B1: in the test with 2-hsALPI peptide, the Kd amounted to 0.00711 nM. Further, the binding result in test [1], in test [2] and in test [3] was “no binding” in each case.

B2: CDI022E3 (antibody, V domains shown)
VH: CQSLEESGGRLVTPGTPLTLTCTVSGIDLSTYAMGWVRQAPGEGLEWIGTIGVSGSTYYASWAKGRFTISKTSTTVDLKMTSPATEDTATYFCARGSVWGPGTLVTVSL
VL: AQVLTQTPASVEAAVGGTVTIKCQASQSISTWLAWYQQKPGQAPKRLIYSASTLASGVSSRFKGSGSGTEFTLTISDLECADAATYYCRCSYGKSYGEAFGGGTEVVVKG
For B2, the Kd turned out to be 0.021 nM in the test with 2-hsALPI peptide and 0.2 nM with 6-hsALPI peptide.
